This passage reports Kd results from article PMC12708648 (2025).

In general, Kd refers to the constant that tells how readily two partners part at equilibrium. Lower therefore signals higher affinity.

Assay [1] has as its target T1, CP-GST (rice stripe virus (RSV), UniProt P68559 1-322).
T1 chain: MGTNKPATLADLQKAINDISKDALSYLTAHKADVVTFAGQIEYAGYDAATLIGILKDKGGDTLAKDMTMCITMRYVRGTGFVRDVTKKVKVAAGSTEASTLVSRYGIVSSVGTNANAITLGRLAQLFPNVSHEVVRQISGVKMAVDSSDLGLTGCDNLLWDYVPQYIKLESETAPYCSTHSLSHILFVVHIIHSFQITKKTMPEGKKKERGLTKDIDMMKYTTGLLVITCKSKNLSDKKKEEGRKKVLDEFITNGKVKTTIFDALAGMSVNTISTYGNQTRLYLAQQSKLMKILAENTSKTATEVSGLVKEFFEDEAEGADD
The experiment in a line: MST.

The target in assay [2] is T2, NS3-GST (rice stripe virus (RSV)).
T2 chain: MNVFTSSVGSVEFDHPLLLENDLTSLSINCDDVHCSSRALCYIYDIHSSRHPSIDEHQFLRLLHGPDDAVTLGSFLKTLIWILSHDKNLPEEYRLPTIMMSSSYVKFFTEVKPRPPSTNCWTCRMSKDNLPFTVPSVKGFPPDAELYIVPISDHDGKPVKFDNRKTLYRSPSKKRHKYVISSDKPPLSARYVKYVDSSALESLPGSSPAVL
The experiment in a line: MST.

B1: OsVIRK1N-His (domain or fragment)
chain: MAPPPPSPPCRPRVKPERALLCFSLLLLLTATTANASITDCPTTSSTNSSHVDDGAFGANLRALLSSLSAAAAASSSGFAENATGAAPDTAYGLAQCRGGIVGGGNGTSCRSCLDDSVRDAAKACPGEKSAVIISDYCLVRYSNASFAGAADERTVKLWWNTDNATQPERFKSLLGTLMGNLTDAAARASSPLMFAAGETDLPPFTKIYGMAQCTRDLAAGDCYRCLVGAVNNIPKCCDGKQGGQVITRSCSIRFEVYPFFDA
modifications: labelling dye (NanoTemper) in the MST assay
Regarding B1, the figures for the Kd in assay [1] and in assay [2] were 1.29 µM and 5.2 µM, respectively.

B2: OsVIRK1C-His (domain or fragment)
chain: LCKRNRKPHKHMMIGSVDLGDEDEMRGSESLLYDLSTLRAATANFSEENKLGEGGFGPVYKGTLQNGQEIAVKRLSATSHQGQLEMKNEVVLVAKLQHKNLVRLLGCCIEEREKILVYEFLCNKSLDTILFDTSRQQDLNWEQRFKIIEGIGRGLLYLHEDSRLKIIHRDLKASNILLDVDMNPKISDFGLAKLFNMEASVANTSRIAGTYGYMAPEYALHGIFSAKSDVFSYGVLLLEIVTGRRNTCLHDSEDLLAFVWRHWSRGGAGELLDGCPAAGRRPQELLRCIHVGLLCVQEDPQLRPGMAAVVVMLNSRSVTLPAPSAPAFVSASRGIGGSPPPAAAAGDAPARSTDHEVPTAAR
modifications: labelling dye (NanoTemper) in the MST assay
For B2, the results for the Kd in assay [1] and in assay [2] were 0.704 µM and 4.25 µM, respectively.
